# Measured values from US20230132049A1 (Genmab, published 2023).
# Where two headings read alike, the source gives them in different places.
# T1: human CD30 (human, UniProt P28908 19-595)
# T1 sequence: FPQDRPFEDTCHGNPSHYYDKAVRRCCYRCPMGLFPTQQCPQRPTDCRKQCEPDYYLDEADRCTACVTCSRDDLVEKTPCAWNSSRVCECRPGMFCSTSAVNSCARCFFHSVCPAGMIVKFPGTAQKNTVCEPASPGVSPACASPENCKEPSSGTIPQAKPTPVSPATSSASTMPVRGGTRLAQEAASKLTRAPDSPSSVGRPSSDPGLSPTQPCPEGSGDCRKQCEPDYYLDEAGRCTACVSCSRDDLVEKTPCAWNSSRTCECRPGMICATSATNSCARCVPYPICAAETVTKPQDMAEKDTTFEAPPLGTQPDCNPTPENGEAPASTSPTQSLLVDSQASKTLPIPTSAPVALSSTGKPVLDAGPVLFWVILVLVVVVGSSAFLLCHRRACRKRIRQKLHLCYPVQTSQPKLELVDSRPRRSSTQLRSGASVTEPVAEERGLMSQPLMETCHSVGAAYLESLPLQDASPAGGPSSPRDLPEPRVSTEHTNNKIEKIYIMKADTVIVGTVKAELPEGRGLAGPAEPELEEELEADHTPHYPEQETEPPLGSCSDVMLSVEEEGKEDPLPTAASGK
# T2: rhesus monkey (Macaca mulatta) CD30 (rhesus monkey, UniProt P28908 19-595 (human entry))
# T2 construct: Full-length construct expressed in Expi293F cells; also called mmCD30
# T2 chain: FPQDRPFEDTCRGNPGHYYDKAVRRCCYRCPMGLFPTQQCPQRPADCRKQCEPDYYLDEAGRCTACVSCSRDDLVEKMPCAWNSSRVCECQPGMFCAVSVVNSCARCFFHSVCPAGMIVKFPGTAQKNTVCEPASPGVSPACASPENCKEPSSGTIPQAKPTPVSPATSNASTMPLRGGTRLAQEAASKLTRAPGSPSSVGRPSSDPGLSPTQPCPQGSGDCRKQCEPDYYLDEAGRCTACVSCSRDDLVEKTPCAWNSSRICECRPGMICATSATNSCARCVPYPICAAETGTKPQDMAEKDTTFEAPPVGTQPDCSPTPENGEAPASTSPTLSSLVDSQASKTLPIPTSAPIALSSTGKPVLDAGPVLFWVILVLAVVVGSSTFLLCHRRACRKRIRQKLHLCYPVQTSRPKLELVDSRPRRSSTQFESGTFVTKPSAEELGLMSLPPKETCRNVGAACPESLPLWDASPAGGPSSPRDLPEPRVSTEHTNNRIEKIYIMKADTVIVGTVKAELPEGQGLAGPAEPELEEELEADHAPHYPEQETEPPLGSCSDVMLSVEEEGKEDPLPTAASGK
# Tests used:
# human CD30 [1] = molecular target: T1, human CD30; experiment: cell-based or functional assay
# human CD30 [2] = molecular target: T1, human CD30; experiment: flow cytometry on Expi293F cells transfected with human CD30
# Procedure: (§1) Cells (3×10⁴ cells/well) were incubated in polystyrene 96-well round-bottom plates (Thermo Scientific, cat. no. 163320) with serial dilutions of antibodies (ranging from 0.0002 to 50 μg/mL in 4-fold dilution steps) in 50 μL staining buffer at 4° C. for 30 min. Experiments were performed in technical duplicate. After washing twice in staining buffer, cells were incubated in 50 μL secondary antibody at 4° C. for 30 min. […] Cells were washed twice in staining buffer, resuspended in 30 μL staining buffer containing 0.4% EDTA and the ToPro-3 viability marker (Invitrogen, cat. no. T3605) diluted 1:10,000. Cells were analyzed on an iQue Screener (Intellicyt Corporation, USA). Binding curves were analyzed using non-linear regression (sigmoidal dose-response with variable slope) using GraphPad Prism V9.0.0 software (GraphPad Software, San Diego, Calif., USA).
# [3] = molecular target: T2, rhesus monkey (Macaca mulatta) CD30; experiment: flow cytometry on Expi293F cells transfected with rhesus monkey CD30
# [4] = molecular target: T2, rhesus monkey (Macaca mulatta) CD30; experiment: as above
# Procedure: as §1
# human CD30 [5] = molecular target: T1, human CD30; experiment: flow cytometry on SU-DHL-1 cells
# Procedure: Binding of CD3×CD30 bispecific antibodies to two CD30-expressing human tumor cell lines SU-DHL-1 (ALCL; ATCC, cat. no. ACC 356) and HDLM-2 (HL; ATCC, cat. no. CRL-2965) was analyzed by flow cytometry.
# Cells (3×10⁴ cells/well) were incubated in polystyrene 96-well round-bottom plates (Greiner bio-one, cat. no. 650180) with serial dilutions of antibodies (range 0.0046 to 10 μg/mL in 3-fold dilution steps) in 50 μL staining buffer at 4° C. for 30 min. After washing twice in staining buffer, cells were incubated with 50 μL secondary antibody at 4° C. for 30 min. […] Next, cells were washed twice in staining buffer, resuspended in 100 μL staining buffer supplemented with TO-PRO-3 iodide (Thermo Fisher Scientific; cat. no. T3605; 1:8000 dilution) and analyzed on a FACSCelesta flow cytometer (BD Biosciences, USA). Live cells were gated based on FSC/SSC and absence of TOPRO-3 staining. Binding curves were analyzed by non-linear regression of log-transformed data (sigmoidal dose-response with variable slope, four parameters) using GraphPad Prism V7.02 software (GraphPad Software, San Diego, Calif., USA).
Binder,"cytotoxicity IC50 (µg/mL) average, Karpas-299 cells (human CD30 [1])","cytotoxicity maximum lysis (%) average, Karpas-299 cells (human CD30 [1])",EC50 (read off the curve) (human CD30 [2]),binding result [3],binding result [4],EC50 (read off the curve) (human CD30 [5])
"bsG1-huCD3-FEAL×CD30-HRS-3-FEAR (bispecific antibody, human IgG1, kappa, lambda) heavy 1: not shown light 1: not shown heavy 2: QVQLQQSGAELARPGASVKMSCKASGYTFTTYTIHWVRQRPGHDLEWIGYINPSSGYSDYNQNFKGKTTLTADKSSNTAYMQLNSLTSEDSAVYYCARRADYGNYEYTWFAYWGQGTTVTVSSASTKGPSVFPLAPSSKSTSGGTAALGCLVKDYFPEPVTVSWNSGALTSGVHTFPAVLQSSGLYSLSSVVTVPSSSLGTQTYICNVNHKPSNTKVDKRVEPKSCDKTHTCPPCPAPEFEGGPSVFLFPPKPKDTLMISRTPEVTCVVVAVSHEDPEVKFNWYVDGVEVHNAKTKPREEQYNSTYRVVSVLTVLHQDWLNGKEYKCKVSNKALPAPIEKTISKAKGQPREPQVYTLPPSREEMTKNQVSLTCLVKGFYPSDIAVEWESNGQPENNYKTTPPVLDSDGSFFLYSRLTVDKSRWQQGNVFSCSVMHEALHNHYTQKSLSLSPG light 2: DIVMTQSPKFMSTSVGDRVTVTCKASQNVGTNVAWFQQKPGQSPKVLIYSASYRYSGVPDRFTGSGSGTDFTLTISNVQSEDLAEYFCQQYHTYPLTFGGGTKLEINRTVAAPSVFIFPPSDEQLKSGTASVVCLLNNFYPREAKVQWKVDNALQSGNSQESVTEQDSKDSTYSLSSTLTLSKADYEKHKVYACEVTHQGLSSPVTKSFNRGEC",0.068 µg/mL,47.5%,,,,
"bsG1-huCD3-FEAL×CD30-T105-FEAR (bispecific antibody, human IgG1, kappa, lambda, Bispecific IgG1 by Fab-arm exchange of the two parental antibodies; also called bsIgG1-huCD3-FEAL×CD30-T105-FEAR) heavy 1: not shown light 1: not shown heavy 2: not shown light 2: DIVMTQSQKFMSTSVGDRVSVTCKASQNVNTNVAWYQQKPGQSPEALIYSASYRYSGVPDRFTGSGSGTDFTLTISNVQSEDLAEYFCQQYNSYPLTFGSGTKLEIKRTVAAPSVFIFPPSDEQLKSGTASVVCLLNNFYPREAKVQWKVDNALQSGNSQESVTEQDSKDSTYSLSSTLTLSKADYEKHKVYACEVTHQGLSSPVTKSFNRGEC",0.042 µg/mL,52.6%,~0.2 µg/mL,,,
"bsG1-huCD3-FEAL×CD30-MDX060-FEAR (bispecific antibody, human IgG1, kappa, lambda, also called bsG1-huCD3xCD30-MDX060) heavy 1: not shown light 1: not shown heavy 2: QVQLQQWGAGLLKPSETLSLTCAVYGGSFSAYYWSWIRQPPGKGLEWIGDINHGGGTNYNPSLKSRVTISVDTSKNQFSLKLNSVTAADTAVYYCASLTAYWGQGSLVTVSSASTKGPSVFPLAPSSKSTSGGTAALGCLVKDYFPEPVTVSWNSGALTSGVHTFPAVLQSSGLYSLSSVVTVPSSSLGTQTYICNVNHKPSNTKVDKRVEPKSCDKTHTCPPCPAPEFEGGPSVFLFPPKPKDTLMISRTPEVTCVVVAVSHEDPEVKFNWYVDGVEVHNAKTKPREEQYNSTYRVVSVLTVLHQDWLNGKEYKCKVSNKALPAPIEKTISKAKGQPREPQVYTLPPSREEMTKNQVSLTCLVKGFYPSDIAVEWESNGQPENNYKTTPPVLDSDGSFFLYSRLTVDKSRWQQGNVFSCSVMHEALHNHYTQKSLSLSPG light 2: DIQMTQSPTSLSASVGDRVTITCRASQGISSWLTWYQQKPEKAPKSLIYAASSLQSGVPSRFSGSGSGTDFTLTISSLQPEDFATYYCQQYDSYPITFGQGTRLEIKRTVAAPSVFIFPPSDEQLKSGTASVVCLLNNFYPREAKVQWKVDNALQSGNSQESVTEQDSKDSTYSLSSTLTLSKADYEKHKVYACEVTHQGLSSPVTKSFNRGEC",0.033 µg/mL,53.7%,~0.1 µg/mL,,,
"bsG1-huCD3-FEAL×CD30-hAC10-FEAR (bispecific antibody, human IgG1, kappa, lambda, Bispecific IgG1 by Fab-arm exchange of the two parental antibodies) heavy 1: not shown light 1: not shown heavy 2: QVQLVQSGAEVKKPGASVKVSCKASGYTFTDYYITWVRQAPGQGLEWMGWIYPGSGNTKYNEKFKGRVTMTRDTSISTAYMELSRLRSDDTAVYYCANYGNYWFAYWGQGTLVTVSSASTKGPSVFPLAPSSKSTSGGTAALGCLVKDYFPEPVTVSWNSGALTSGVHTFPAVLQSSGLYSLSSVVTVPSSSLGTQTYICNVNHKPSNTKVDKRVEPKSCDKTHTCPPCPAPEFEGGPSVFLFPPKPKDTLMISRTPEVTCVVVAVSHEDPEVKFNWYVDGVEVHNAKTKPREEQYNSTYRVVSVLTVLHQDWLNGKEYKCKVSNKALPAPIEKTISKAKGQPREPQVYTLPPSREEMTKNQVSLTCLVKGFYPSDIAVEWESNGQPENNYKTTPPVLDSDGSFFLYSRLTVDKSRWQQGNVFSCSVMHEALHNHYTQKSLSLSPG light 2: not shown",0.032 µg/mL,37.8%,~0.06 µg/mL,binds,,
"IgG1-CD30-T215-FEAR (antibody, V domains shown, Monospecific, bivalent parental antibody) VH: QVTLKESGPGILQPSQTLSLTCSFSGFSLSVSGMGVSWIRQPSGKGLEWLAHIHWDDDRRSNPSLRSRLTISKDTSNNQVFLKITSVDTADTATYYCARRPDLYGNYFFFDFWGQGTTLTVSS VL: DIVMTQSQKFMSTSVGDRVSVTCKASQNVFTNVAWYQQKLGQSPKPLIYSASYRYSGVPDRFTGSGSGTDFTLTISDVQSEDLAEYFCQQYNSYPVTFGAGTKLELKR",,,,,binds,
"bsG1-huCD3-FEAL×CD30-T215-FEAR (bispecific antibody, human IgG1, kappa, lambda, Bispecific IgG1 by Fab-arm exchange of the two parental antibodies; also called bsIgG1-huCD3-FEAL×CD30-T215-FEAR) heavy 1: not shown light 1: not shown heavy 2: not shown light 2: DIVMTQSQKFMSTSVGDRVSVTCKASQNVFTNVAWYQQKLGQSPKPLIYSASYRYSGVPDRFTGSGSGTDFTLTISDVQSEDLAEYFCQQYNSYPVTFGAGTKLELKRTVAAPSVFIFPPSDEQLKSGTASVVCLLNNFYPREAKVQWKVDNALQSGNSQESVTEQDSKDSTYSLSSTLTLSKADYEKHKVYACEVTHQGLSSPVTKSFNRGEC",0.077 µg/mL,42.8%,,,binds,
"bsG1-huCD3-FEAL×CD30-T408-FEAR (bispecific antibody, human IgG1, kappa, lambda, Bispecific IgG1 by Fab-arm exchange of the two parental antibodies; also called bsIgG1-huCD3-FEAL×CD30-T408-FEAR; BisIgG1-huCD3-FEAL×CD30-T408-FEAR) heavy 1: not shown light 1: not shown heavy 2: QVQLQQPGAELVRPGASVKLSCKASGYTFTSYWINWVKQRPGQGLEWIGNIYPSDSYSNYNQKFKDKATLTVDKSSSTAYMQLSSPTSEDSAVYYCTLGSYWGQGTLVTVSAASTKGPSVFPLAPSSKSTSGGTAALGCLVKDYFPEPVTVSWNSGALTSGVHTFPAVLQSSGLYSLSSVVTVPSSSLGTQTYICNVNHKPSNTKVDKRVEPKSCDKTHTCPPCPAPEFEGGPSVFLFPPKPKDTLMISRTPEVTCVVVAVSHEDPEVKFNWYVDGVEVHNAKTKPREEQYNSTYRVVSVLTVLHQDWLNGKEYKCKVSNKALPAPIEKTISKAKGQPREPQVYTLPPSREEMTKNQVSLTCLVKGFYPSDIAVEWESNGQPENNYKTTPPVLDSDGSFFLYSRLTVDKSRWQQGNVFSCSVMHEALHNHYTQKSLSLSPG light 2: DVVMTQTPLTLSVTIGQPASISCKSSQSLSDSDGKTYLNWLLQRPGQSPKRLIYLVSKLDSGVPDRFTGSGSGTDFTLKISRVEAEDLGVYYCWQGAHFPRTFGGGTKLEIKRTVAAPSVFIFPPSDEQLKSGTASVVCLLNNFYPREAKVQWKVDNALQSGNSQESVTEQDSKDSTYSLSSTLTLSKADYEKHKVYACEVTHQGLSSPVTKSFNRGEC",0.226 µg/mL,41.3%,,,binds,
"IgG1-CD30-T408-FEAR (antibody, V domains shown, Monospecific, bivalent parental antibody) VH: QVQLQQPGAELVRPGASVKLSCKASGYTFTSYWINWVKQRPGQGLEWIGNIYPSDSYSNYNQKFKDKATLTVDKSSSTAYMQLSSPTSEDSAVYYCTLGSYWGQGTLVTVSA VL: not shown",,,,,,~0.7 µg/mL
